From publication PMC3110755, “Inhibition of Cell Proliferation by an Anti-EGFR Aptamer” come the findings set out here.

Data set [1] addresses EGFR ectodomain-Fc (human) (Homo sapiens (Human), UniProt P00533 25-645). Kind of data set: filter; DPBS, 5 mM MgCl2, 25 C, 30 min; 0.1 nM RNA. Conditions: tags: Fc fusion (R&D Systems); label: 5'-32P.
The target of another data set is ErbB2 (human) (Homo sapiens (Human), UniProt P04626 23-652). In words: filter; 10 nM RNA, 100 nM protein, DPBS 5 mM MgCl2, 25 C. Particulars: label: internal alpha-32P.

Residue numbers refer to the chain shown, from its start.

B1: E03 (ssRNA)
RNA: GGCGCUCCGACCUUAGUCUCUGUGCUAGUAUAUCGCACGGAUUUAAUCGCCGUAGAAAAGCAUGUCAAAGCCGGAACCGUGUAGCACAGCAGA
modifications: 2'-F pyrimidines
On to B1, for which the Kd (as a rule, the concentration at which binding is half-saturated) in data set [1] is ~2.45 nM. Moreover, the binding result with ErbB2 (human) is on record as “no binding”.

B2: E07 (ssRNA)
RNA: B1 RNA with U26C, A27G, G28C, U33A, C34U
modifications: 2'-F pyrimidines
As for B2, in the data set with ErbB2 (human), the binding result is “no binding”.
